Measurements published in patent US20160102316A1, “STRESS TOLERANT PLANTS” (CONSEJO SUPERIOR DE INVESTIGACIONES CIENTIFICAS(CSIC), priority 2013, published 2016).
Entries after “also recorded” stand apart in the source; their conditions may differ. Peptide text beside a SMILES is read from it. * marks the point of attachment. Cbz = O=C(OCc1ccccc1)*

T1: 3HA-PYL8 (Arabidopsis thaliana, UniProt Q9FGM1)
T1 construct: expressed in transfected cells; host or cells: stably transformed Arabidopsis thaliana (Col-0) plants, line oe3HA-PYL8: seedlings or imbibed seeds; seed lines in pyl8-1 background, some crossed with oeDDA1-GFP
T1 sequence (Q9FGM1 1-188): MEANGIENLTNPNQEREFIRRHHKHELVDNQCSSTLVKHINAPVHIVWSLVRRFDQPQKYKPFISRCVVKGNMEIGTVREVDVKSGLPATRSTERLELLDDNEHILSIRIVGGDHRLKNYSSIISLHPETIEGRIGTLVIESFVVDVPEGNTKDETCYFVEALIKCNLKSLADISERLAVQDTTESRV

T2: DDB1b (Arabidopsis, UniProt O49552 1-1088)
T2 construct: Endogenous protein in the TAP; also called DDB1 proteins
T2 sequence (looked up): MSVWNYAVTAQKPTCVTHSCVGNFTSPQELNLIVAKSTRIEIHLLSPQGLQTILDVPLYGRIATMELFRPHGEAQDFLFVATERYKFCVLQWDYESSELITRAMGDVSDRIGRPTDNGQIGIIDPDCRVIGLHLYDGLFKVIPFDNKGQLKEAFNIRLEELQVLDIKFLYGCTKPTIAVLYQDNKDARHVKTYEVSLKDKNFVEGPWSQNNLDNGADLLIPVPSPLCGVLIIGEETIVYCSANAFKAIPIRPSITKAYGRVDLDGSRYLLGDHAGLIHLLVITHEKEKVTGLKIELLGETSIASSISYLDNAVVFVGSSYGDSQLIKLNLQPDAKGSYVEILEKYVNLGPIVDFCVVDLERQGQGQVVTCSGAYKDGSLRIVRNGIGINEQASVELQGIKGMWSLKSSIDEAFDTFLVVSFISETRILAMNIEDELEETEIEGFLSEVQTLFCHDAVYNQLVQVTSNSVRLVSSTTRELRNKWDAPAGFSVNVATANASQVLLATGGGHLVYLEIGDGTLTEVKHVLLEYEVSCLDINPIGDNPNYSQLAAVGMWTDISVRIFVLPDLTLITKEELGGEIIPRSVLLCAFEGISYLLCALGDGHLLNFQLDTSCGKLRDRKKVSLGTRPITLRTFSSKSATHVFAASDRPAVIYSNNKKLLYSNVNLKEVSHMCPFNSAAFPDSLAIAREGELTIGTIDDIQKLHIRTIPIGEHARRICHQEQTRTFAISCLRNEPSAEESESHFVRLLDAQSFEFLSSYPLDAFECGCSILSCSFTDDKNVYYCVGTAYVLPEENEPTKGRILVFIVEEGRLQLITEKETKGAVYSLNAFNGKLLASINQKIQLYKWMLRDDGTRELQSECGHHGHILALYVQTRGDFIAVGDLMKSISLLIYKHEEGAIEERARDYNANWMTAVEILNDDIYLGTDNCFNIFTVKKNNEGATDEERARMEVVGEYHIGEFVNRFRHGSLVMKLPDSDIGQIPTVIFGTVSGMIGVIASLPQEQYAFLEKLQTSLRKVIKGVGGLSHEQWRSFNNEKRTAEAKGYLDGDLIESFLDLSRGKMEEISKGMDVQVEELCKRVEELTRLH

T3: DET1 (Arabidopsis, UniProt P48732 1-543)
T3 construct: Endogenous protein in the TAP; also called DEETIOLATED 1
T3 sequence (looked up): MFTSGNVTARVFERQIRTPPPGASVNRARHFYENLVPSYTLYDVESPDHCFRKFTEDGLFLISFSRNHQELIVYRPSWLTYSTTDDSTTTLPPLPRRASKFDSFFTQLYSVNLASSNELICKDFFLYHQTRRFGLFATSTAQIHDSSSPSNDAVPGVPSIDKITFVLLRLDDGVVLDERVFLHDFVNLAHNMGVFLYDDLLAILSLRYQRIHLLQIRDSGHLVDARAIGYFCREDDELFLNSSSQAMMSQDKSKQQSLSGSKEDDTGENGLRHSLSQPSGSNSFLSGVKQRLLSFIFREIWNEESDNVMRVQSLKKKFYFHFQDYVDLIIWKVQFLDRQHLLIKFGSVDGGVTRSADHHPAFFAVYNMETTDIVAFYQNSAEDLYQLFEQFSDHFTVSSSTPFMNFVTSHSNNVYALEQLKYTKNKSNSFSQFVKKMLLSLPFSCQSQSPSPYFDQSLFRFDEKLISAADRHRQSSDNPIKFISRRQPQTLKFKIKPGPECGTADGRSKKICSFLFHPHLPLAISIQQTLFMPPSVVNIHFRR

T4: DDB1a (Arabidopsis, UniProt Q9M0V3 1-1088)
T4 construct: Endogenous protein in the TAP from Arabidopsis cell cultures; also called DDB1 proteins
T4 sequence (looked up): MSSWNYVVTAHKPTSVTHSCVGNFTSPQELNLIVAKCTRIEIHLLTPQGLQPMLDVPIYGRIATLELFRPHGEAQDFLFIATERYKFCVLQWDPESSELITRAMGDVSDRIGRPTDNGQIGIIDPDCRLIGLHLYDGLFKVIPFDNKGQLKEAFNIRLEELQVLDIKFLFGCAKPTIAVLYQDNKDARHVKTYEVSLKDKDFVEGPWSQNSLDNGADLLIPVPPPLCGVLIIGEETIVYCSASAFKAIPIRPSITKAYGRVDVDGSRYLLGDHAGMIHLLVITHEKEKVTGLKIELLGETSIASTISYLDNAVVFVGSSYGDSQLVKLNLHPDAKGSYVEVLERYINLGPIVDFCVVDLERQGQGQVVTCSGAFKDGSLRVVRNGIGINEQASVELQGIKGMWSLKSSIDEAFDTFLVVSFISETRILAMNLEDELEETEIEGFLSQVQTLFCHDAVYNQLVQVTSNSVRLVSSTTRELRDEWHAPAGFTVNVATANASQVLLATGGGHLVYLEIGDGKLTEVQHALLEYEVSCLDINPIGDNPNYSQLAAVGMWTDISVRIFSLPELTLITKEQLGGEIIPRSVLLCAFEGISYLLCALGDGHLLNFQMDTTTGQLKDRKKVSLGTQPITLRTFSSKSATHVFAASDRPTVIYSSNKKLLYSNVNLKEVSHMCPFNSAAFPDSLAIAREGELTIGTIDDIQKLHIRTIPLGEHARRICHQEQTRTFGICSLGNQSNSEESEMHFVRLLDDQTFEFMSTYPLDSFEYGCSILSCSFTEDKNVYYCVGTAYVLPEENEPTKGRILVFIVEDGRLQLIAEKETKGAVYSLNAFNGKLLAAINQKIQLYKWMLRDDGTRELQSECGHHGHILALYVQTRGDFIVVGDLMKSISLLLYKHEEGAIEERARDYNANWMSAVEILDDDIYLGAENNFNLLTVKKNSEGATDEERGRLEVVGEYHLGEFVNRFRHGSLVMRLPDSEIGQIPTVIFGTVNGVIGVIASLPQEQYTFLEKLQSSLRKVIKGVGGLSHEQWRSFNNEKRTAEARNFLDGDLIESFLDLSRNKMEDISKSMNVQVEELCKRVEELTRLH


Tests used:
3HA-PYL8 [1] = molecular target: T1, 3HA-PYL8; experiment: In vivo protein degradation assay (cycloheximide time course, immunoblot); settings: 8-d-old seedlings treated with cycloheximide, 50 μM MG132; oe3HA-PYL8 and oe3HA-PYL8/oeDDA1-GFP
Procedure: (§1) For protein extraction from seedlings, proteins were extracted in buffer containing 50 mM Tris-HCl pH 7.4, 150 mM NaCl, 10mM MgCl2, 1 mM PMSF, 0.1%NP-40 and 1× complete protease inhibitor (Roche). After centrifugation at 16,000 g at 4° C., the supernatants were collected. This step was repeated twice. For protein extraction from seeds, seeds were frozen in liquid N2 and then homogenized in buffer containing 7 M urea, 2 M thiourea, 4% 3-[(3-cholamidopropyl)dimethylammonio]-1-propanesulfonate (CHAPS; w/v), 18 mM Tris-HCl pH 7.5, 0,2% Triton X100, 1× complete protease inhibitor (Roche). After 10 min incubation at 4° C. with rotation. DTT was added to protein extracts (14 mM final concentration), prior to 20 min incubation at 4° C. Extracts were clarified by centrifugation as afore-mentioned. Protein concentration in final supernatants was determined using a Bio-Rad Protein Assay kit. For in vivo co-immunoprecipitation assays, normalized seedling protein extracts were incubated with 5 μl anti-GFP antibody (Living colors Full length A.V. Polyclonal Antibody, Clontech) for 1 h at 4° C. with rotation. 10 μl of protein A-coupled beads (prewashed twice with 0.1 M Glycine pH 2.7) were added to the samples and incubated for an additional hour at 4° C. with rotation. […]

3HA-PYL8 [2] = experiment: MG132 treatment of oe3HA-PYL8 seedlings, anti-HA immunoblot; format: in vivo, Arabidopsis; settings: 9-d-old oe3HA-PYL8 seedlings, 50 μM MG132, 2 h, vs mock
Procedure: To determine whether PYL8 is a substrate of the UPS, we treated Arabidopsis seedlings expressing a 3×HA-tagged PYL8 fusion (oe3HA-PYL8) with proteasome inhibitor MG132. […] Moreover, upon proteasome inhibition several bands of high MW were detected, likely corresponding to ubiquitinated 3HA-PYL8 forms.
as §1, with “kit.” for “kit. For in vivo co-immunoprecipitation assays, normalized seedling protein extracts were incubated with 5 μl anti-GFP antibody (Living colors Full length A.V. Polyclonal Antibody, Clontech) for 1 h at 4° C. with rotation. 10 μl of protein A-coupled beads (prewashed twice with 0.1 M Glycine pH 2.7) were added to the samples and incubated for an additional hour at 4° C. with rotation.”

DDB1b = molecular target: T2, DDB1b; experiment: yeast two-hybrid (FIG. 4B)
Procedure: (§2) (A) Y187 yeast cells transformed with pGBKT7-DDA1 were used to screen a cDNA library prepared from Arabidopsis seedlings in the pGADT7 vector and transformed into AH109 cells. Positive clones included truncated versions of ABA receptors PYL4 and PYL9. Yeast clones were grown in selective media containing different concentrations of 3AT (ranging 0.5 to 5 […]). Empty pGADT7 vector was used as negative control. (B-C) DDA1 interaction with full length PYL8 (B), PYL4, PYL5, PYL6 or PYL9 (C) was assessed using yeast two hybrid experiments as in (A). Physical association between PYL8 and other components of the CDD complex (DDB1a, DDB1b, DET1 and COP10) was also tested (B).
(§3) The full length DDA1 cDNA was cloned into the pGBKT7 (Gal4 DNA binding domain, BD; Clontech). […] To confirm protein interactions, plasmids were co-transformed into Saccharomyces cerevisiae AH109 cells, following standard heat-shock protocols (Chini et al., 2007). Successfully transformed colonies were identified on yeast synthetic drop-out lacking Leu and Trp; these colonies were resuspended in water and transferred to selective media lacking Ade, His, Leu and Trp. Plates without His were supplemented with different concentrations of 3-amino 1,2,4-triazole (3AT; ranging 0.5-10 mM). Yeast cells were incubated at 30° C. during 6 days. Empty vectors were co-transformed as negative controls. To test the DDA1 interaction with specific DDB1a domains, DDB1a truncated versions were generated and cloned into the pGADT7 vector as follows: BPA (aa 16-350), BPB (aa 387-704), BPA+BPB (aa 16-704), BPC (aa 704-1002) and BPB+BPC (aa 350-1002). Full length DDB1a was used as a positive control.

DET1 = molecular target: T3, DET1; experiment: yeast two-hybrid (FIG. 4B)
Procedure: as §2, §3

DDB1a = molecular target: T4, DDB1a; experiment: yeast two-hybrid (FIG. 4B)
Procedure: as §2, §3

Molecule | 3HA-PYL8 destabilization/accumulation (3HA-PYL8 [1]) | 3HA-PYL8 protein accumulation (3HA-PYL8 [2]) | binding result (DDB1b) | binding result (DET1) | binding result (DDB1a)
CC(C)C[C@@H](C=O)NC(=O)[C@H](CC(C)C)NC(=O)[C@H](CC(C)C)NC(=O)OCc1ccccc1 [MG132] (Cbz-Leu-Leu-Leu-aldehyde) | attenuated 3HA-PYL8 destabilization; also recorded: increased accumulation of 3HA-PYL8 | increased 3HA-PYL8 protein accumulation; also recorded: stabilizes 3HA-PYL8 | – | – | –
full length PYL8 (receptor, Arabidopsis, UniProt Q9FGM1 1-188, looked up, Gal4-domain fusion in the yeast two-hybrid assays; also called ABA receptor PYL8) MEANGIENLTNPNQEREFIRRHHKHELVDNQCSSTLVKHINAPVHIVWSLVRRFDQPQKYKPFISRCVVKGNMEIGTVREVDVKSGLPATRSTERLELLDDNEHILSIRIVGGDHRLKNYSSIISLHPETIEGRIGTLVIESFVVDVPEGNTKDETCYFVEALIKCNLKSLADISERLAVQDTTESRV | – | – | no binding | no binding | no binding
